Experimental findings from patent publication US20080221021A1, “Novel Corticotropin-Releasing Factor Receptor 1 (Crfr1) Agonist” (Max-Planck-Gesellschaft Zur Forderung Der, priority 2004, published 2008) are described below.

The IC50 is the concentration that inhibits the measured activity by half. A lower IC50 goes with higher potency.

What all share (test): competition binding
Holding throughout (conditions): modification not given

Assay [1] concerns the target T1, mouse CRFR2β (mouse), Q60748.
T1 chain: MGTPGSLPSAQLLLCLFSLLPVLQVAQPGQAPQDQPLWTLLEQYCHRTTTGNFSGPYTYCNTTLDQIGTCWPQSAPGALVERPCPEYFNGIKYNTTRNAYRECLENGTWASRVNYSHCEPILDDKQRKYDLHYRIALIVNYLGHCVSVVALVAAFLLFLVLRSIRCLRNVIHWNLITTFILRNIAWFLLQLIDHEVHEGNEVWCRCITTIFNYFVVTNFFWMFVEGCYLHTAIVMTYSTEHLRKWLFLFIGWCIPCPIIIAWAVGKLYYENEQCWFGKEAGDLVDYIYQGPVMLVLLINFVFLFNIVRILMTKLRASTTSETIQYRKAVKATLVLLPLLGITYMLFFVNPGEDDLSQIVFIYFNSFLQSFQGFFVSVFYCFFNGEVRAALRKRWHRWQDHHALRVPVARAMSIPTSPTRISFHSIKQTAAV

The target in assay [2] is T2, rat CRFBP C-terminally fused with a His6 sequence (rat), P24388.
T2 chain: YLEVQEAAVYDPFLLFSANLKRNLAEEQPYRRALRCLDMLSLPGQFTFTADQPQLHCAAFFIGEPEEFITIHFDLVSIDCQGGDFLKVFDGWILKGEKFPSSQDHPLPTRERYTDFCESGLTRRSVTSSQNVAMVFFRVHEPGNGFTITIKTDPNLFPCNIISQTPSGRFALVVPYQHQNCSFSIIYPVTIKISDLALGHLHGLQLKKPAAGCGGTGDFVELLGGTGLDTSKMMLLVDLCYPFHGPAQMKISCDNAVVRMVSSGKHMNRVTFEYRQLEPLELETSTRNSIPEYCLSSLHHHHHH

The target in a further assay is T3, rat CRFR1α (rat), P35353.
T3 chain: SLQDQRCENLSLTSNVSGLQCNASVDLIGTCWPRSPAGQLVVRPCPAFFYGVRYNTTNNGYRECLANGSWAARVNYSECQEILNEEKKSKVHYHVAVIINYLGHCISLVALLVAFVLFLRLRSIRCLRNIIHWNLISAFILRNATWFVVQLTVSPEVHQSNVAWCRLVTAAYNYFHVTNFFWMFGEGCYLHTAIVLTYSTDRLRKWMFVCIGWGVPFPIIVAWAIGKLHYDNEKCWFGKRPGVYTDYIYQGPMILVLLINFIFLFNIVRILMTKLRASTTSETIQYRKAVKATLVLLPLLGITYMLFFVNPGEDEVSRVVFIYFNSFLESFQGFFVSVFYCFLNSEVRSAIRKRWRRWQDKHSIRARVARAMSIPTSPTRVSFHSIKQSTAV

B1: ovine corticotropin-releasing factor (peptide)
chain: SQEPPISLDLTFHLLREVLEMTKADQLAQQAHSNRKLLDIA
B1: the IC50 in assay [1] amounted to 160 nM; in assay [2], 450 nM; in the assay with rat CRFR1α (rat), P35353, 1.8 nM.
